In doi:10.1101/639948 (bioRxiv, 2019):

Target: native Miro2 (UniProt Q8JZN7 1-620)
Test: proximity ligation

native Miro2, sequence (Q8JZN7 whole entry): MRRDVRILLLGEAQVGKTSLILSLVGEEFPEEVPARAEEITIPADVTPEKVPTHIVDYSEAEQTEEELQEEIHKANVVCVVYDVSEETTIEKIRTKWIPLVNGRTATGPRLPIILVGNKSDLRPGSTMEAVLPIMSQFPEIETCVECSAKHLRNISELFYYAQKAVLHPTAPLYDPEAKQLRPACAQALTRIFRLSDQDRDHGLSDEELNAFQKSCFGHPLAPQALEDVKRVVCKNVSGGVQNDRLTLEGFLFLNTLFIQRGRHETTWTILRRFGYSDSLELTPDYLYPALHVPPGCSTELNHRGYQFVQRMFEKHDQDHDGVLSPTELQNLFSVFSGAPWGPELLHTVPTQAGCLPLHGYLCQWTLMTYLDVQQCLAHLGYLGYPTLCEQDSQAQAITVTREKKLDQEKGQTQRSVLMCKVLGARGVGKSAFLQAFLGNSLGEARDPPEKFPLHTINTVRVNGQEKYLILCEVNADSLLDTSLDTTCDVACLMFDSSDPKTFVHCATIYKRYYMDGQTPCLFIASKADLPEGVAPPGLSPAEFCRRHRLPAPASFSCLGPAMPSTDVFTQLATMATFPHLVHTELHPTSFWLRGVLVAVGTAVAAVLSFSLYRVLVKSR

B1: Sam50 (natural protein)
chain: MGTVHARSLEPLPSSGTDFGALGEEAEFVEVEPEAKQEILENKDVVVQHVHFDGLGRTKDDIIICEIGEVFKAKNLIEVMRRSHEAREKLLRLGIFRQVDVLIDTCHGEDALPNGLDVTFEVTELRRLTGSYNTMVGNNEGSMVLGLKLPNLLGRAEKVTFQFSYGTKETSYGLSFFKPQPGNFERNFSVNLYKVTGQFPWSSLRETDRGVSAEYSFPLWKTSHTVKWEGVWRELGCLSRTASFAVRKESGHSLKSSLSHAMVIDSRNSSILPRRGALFKVNQELAGYTGGDVSFIKEDFELQLNKPLALDSVFSTSLWGGMLVPIGDKPSSIADRFYLGGPTSVRGFSMHSIGPQSEGDYLGGEAYWAGGLHLYTPLPFRPGQGGFGELFRTHFFLNAGNLCNLNYGEGPKAHIRKLAECIRWSYGAGVVLRLGNIARLELNYCIPMGVQGGDRICDGVQFGAGIRFL
fold enrichment of PLA signal over single antibodies: 4 fold

B2: Mic19/CHCHD3 (natural protein)
chain: MGGTASTRRVTFEADENENITVVKGIRLSENVIDRMKESSPSGSKSQRYSSVYGASVSDEDLKRRVAEELALEQAKKESEHQRRLKQARDLERERAAANEQLTRAVLRERISSEEERMKAKHLARQLEEKDRVMRKQDAFYKEQLARLEERSSEFYKVTTEEYQKAAEEVEAKFKRYEYHPVCADLQTKILQCYRQNTQQTLSCSALASQYMHCVNHAKQSMLEKGG
fold enrichment of PLA signal over single antibodies: 4 fold
